Experimental data from PMC3961674.

Biological target: variant 92787 (77405 N-terminally fused to wild-type ubiquitin carrying an S57C substitution) (human) (UniProt P0CG48)
Test: affinity chromatography; 92787 coupled to SulfoLink resin (1 ml columns); 200 μg of 67B89 spiked into 2 ml of PBS, NHDF cell lysate or serum, washed with PBS pH 7.4, eluted with PBS pH 2.2; fractions on SDS-PAGE

67B89 (ED-B domain of fibronectin flanked by its N-terminal domains 6 and 7 and C-terminal domains 8 and 9), sequence (P02751 1080-1541): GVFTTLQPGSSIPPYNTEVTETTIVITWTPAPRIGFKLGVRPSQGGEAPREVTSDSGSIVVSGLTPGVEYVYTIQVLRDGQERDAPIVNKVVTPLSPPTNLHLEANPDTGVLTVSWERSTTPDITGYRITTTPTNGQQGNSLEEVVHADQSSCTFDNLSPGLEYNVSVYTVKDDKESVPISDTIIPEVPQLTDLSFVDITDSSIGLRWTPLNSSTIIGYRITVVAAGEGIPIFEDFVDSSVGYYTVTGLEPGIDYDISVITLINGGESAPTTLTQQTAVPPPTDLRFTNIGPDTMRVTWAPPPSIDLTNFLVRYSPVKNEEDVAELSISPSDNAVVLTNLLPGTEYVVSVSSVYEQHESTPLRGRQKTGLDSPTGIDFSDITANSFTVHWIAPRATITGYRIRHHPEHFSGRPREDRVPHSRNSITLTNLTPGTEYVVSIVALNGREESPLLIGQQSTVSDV

- percent of applied 67B89 recovered from the 92787 resin: > 85%
Substance: 67B89 (ED-B domain of fibronectin flanked by its N-terminal domains 6 and 7 and C-terminal domains 8 and 9) (from UniProt P02751-7 1080-1541) (domain or fragment)
